Laboratory results from the supplement of paper PMC9170038.

Test system: K4 kissing-loop RNA reporter
Experiment: apparent KD of K4 kissing-loop reporter; higher = weaker reporter binding
Settings: Eterna round: R107
Description: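 RNA-MaP round R107: designed RNA switches with theophylline, tryptophan, arginine or FMN aptamers are transcribed on-chip within common flanks. They are titrated with a labelled K4 kissing-loop RNA reporter in RNA-MaP buffer (100 mM Tris pH 7.5, 80 mM KCl, 4 mM MgCl2), without ligand or with the indicated ligand. Median apparent KD per design.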

[1] = input ligand: theophylline 20 uM
[2] = input ligand: tryptophan 2.4 mM
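Further: bound reporter read as fluorescence of individual clusters on recovered sequencing chips by microscopy, with normalized cluster intensities fitted with a binding model.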

## ACACGCAACUAUAGACCAGUGAUGUUGGAACGAGGACCGGUACGGCCGCCACUCGAGCGGACGAUCUACGCCUCUUAUGCUAACG [theeternabot_exclusion_KL_Trp_A_15]
Input ligand: FMN 200 uM
  apparent KD of K4 kissing-loop reporter: 0.482 µM
Input ligand: arginine 13.2 mM
  apparent KD of K4 kissing-loop reporter: 0.481 µM
Input ligand: none
  apparent KD of K4 kissing-loop reporter: 0.552 µM
[1]
  apparent KD of K4 kissing-loop reporter: 0.545 µM
[2]
  apparent KD of K4 kissing-loop reporter: 0.35 µM

## CCGAGCCUGACGUAAGUCAGGCUCUGCGAGCGAGGACCGGUACGGCCGCCACUCGGUGCAGUGAUGUUGCAUGGCCGCAAGGCCG [#2 Exclusion - Tryptophan A Attempt #23 (HarryS)]
Input ligand: FMN 200 uM
  apparent KD of K4 kissing-loop reporter: 0.293 µM
Input ligand: arginine 13.2 mM
  apparent KD of K4 kissing-loop reporter: 0.274 µM
Input ligand: none
  apparent KD of K4 kissing-loop reporter: 0.235 µM
[1]
  apparent KD of K4 kissing-loop reporter: 0.235 µM
[2]
  apparent KD of K4 kissing-loop reporter: 0.351 µM

## AUUUGUUUAUGCGAUACCAGACUAAGCAGUGAUGUUGCUUUUAUUUUUGAAUUUUAAAUAGUCCCUUGGCAGCGCUAUGUCUGUA [#06 K4 Theophylline B Same State]
Input ligand: FMN 200 uM
  apparent KD of K4 kissing-loop reporter: 0.127 µM
Input ligand: arginine 13.2 mM
  apparent KD of K4 kissing-loop reporter: 0.2 µM
Input ligand: none
  apparent KD of K4 kissing-loop reporter: 0.183 µM
[1]
  apparent KD of K4 kissing-loop reporter: 0.217 µM
[2]
  apparent KD of K4 kissing-loop reporter: 0.119 µM

## GGUGUUGUUUGUGCCGUUUUCCUCGUUCCUCGAGGACCGGUACGGCCGCCACUCGAGUGAUGUUUGGGUAGCGAUCCCUGUUAGU [Bdazzled - #9 Exc. Tryptophan A]
Input ligand: FMN 200 uM
  apparent KD of K4 kissing-loop reporter: 0.868 µM
Input ligand: arginine 13.2 mM
  apparent KD of K4 kissing-loop reporter: 0.646 µM
Input ligand: none
  apparent KD of K4 kissing-loop reporter: 0.871 µM
[1]
  apparent KD of K4 kissing-loop reporter: 0.802 µM
[2]
  apparent KD of K4 kissing-loop reporter: 0.766 µM

## GCGCGGCUCAGUGAUGUUGAGCCUCGGAAACGAGGACCGGUACGGCCGCCACUCGUCCGCGCAGCUGAGGCAAAAGCCUCGGCAA [Omei KL Tryp A SS B v1]
Input ligand: FMN 200 uM
  apparent KD of K4 kissing-loop reporter: 0.284 µM
Input ligand: arginine 13.2 mM
  apparent KD of K4 kissing-loop reporter: 0.276 µM
Input ligand: none
  apparent KD of K4 kissing-loop reporter: 0.319 µM
[1]
  apparent KD of K4 kissing-loop reporter: 0.334 µM
[2]
  apparent KD of K4 kissing-loop reporter: 0.261 µM

## UGUCAUUGGUCGGCCGCCACUAGGACCGGGAUUUUUCUAGUGAUGUUAGUUUGGUCGGCCGCCACUAGGACCGGGACCGAUGACU [KL-SSTryp-B13 #DoubleAptamer]
Input ligand: FMN 200 uM
  apparent KD of K4 kissing-loop reporter: 0.638 µM
Input ligand: arginine 13.2 mM
  apparent KD of K4 kissing-loop reporter: 0.345 µM
Input ligand: none
  apparent KD of K4 kissing-loop reporter: 0.644 µM
[1]
  apparent KD of K4 kissing-loop reporter: 0.453 µM
[2]
  apparent KD of K4 kissing-loop reporter: 0.0868 µM

## AAGGUAUCACCAACUUGCAACAAAGGUGAUACCAGCAUCGAAAGAUGCCCUUGGCAGCACCAACUUGCAGUGAUGUUGCAAGUAA [(T)'-(H)'-(T1)-(T2)-(H1)-(H2)_Design10]
Input ligand: FMN 200 uM
  apparent KD of K4 kissing-loop reporter: 0.17 µM
Input ligand: arginine 13.2 mM
  apparent KD of K4 kissing-loop reporter: 0.161 µM
Input ligand: none
  apparent KD of K4 kissing-loop reporter: 0.159 µM
[1]
  apparent KD of K4 kissing-loop reporter: 0.186 µM
[2]
  apparent KD of K4 kissing-loop reporter: 0.17 µM

## UUUAUAAUGUCGGCCGCCACUGGAUUAAUAUUUGUAUAAUCUAGUUCUAAGUGAUGUUUAGAGUCCAGGACCGGGACAUUUGUUA [#09 K4 Tryptophan B Exclusion]
Input ligand: FMN 200 uM
  apparent KD of K4 kissing-loop reporter: 0.395 µM
Input ligand: arginine 13.2 mM
  apparent KD of K4 kissing-loop reporter: 0.282 µM
Input ligand: none
  apparent KD of K4 kissing-loop reporter: 0.3 µM
[1]
  apparent KD of K4 kissing-loop reporter: 0.311 µM
[2]
  apparent KD of K4 kissing-loop reporter: 0.212 µM

## UAUAUACAUUUAUUAAUUAAAGGUUCAGAAGGAGCGUGAAUUAACACAGGUAGGUCGCUGAGCGAGUGAUGUUCGCUAUAUGGUA [JR_ExcArginiA_Sub005]
Input ligand: FMN 200 uM
  apparent KD of K4 kissing-loop reporter: 0.0663 µM
Input ligand: arginine 13.2 mM
  apparent KD of K4 kissing-loop reporter: 0.0726 µM
Input ligand: none
  apparent KD of K4 kissing-loop reporter: 0.0705 µM
[1]
  apparent KD of K4 kissing-loop reporter: 0.0871 µM
[2]
  apparent KD of K4 kissing-loop reporter: 0.0557 µM

## AAUAAAAUCACGGCCGCCACUGAUUUUUUUAUUAGGAGUGAUGUUCCUUUGUCUAUAUACCUUAACAGGACCGGGUGAAUAUUUA [JR_SSTryptoB_Sub022]
Input ligand: FMN 200 uM
  apparent KD of K4 kissing-loop reporter: 0.0543 µM
Input ligand: arginine 13.2 mM
  apparent KD of K4 kissing-loop reporter: 0.0934 µM
Input ligand: none
  apparent KD of K4 kissing-loop reporter: 0.0674 µM
[1]
  apparent KD of K4 kissing-loop reporter: 0.0955 µM
[2]
  apparent KD of K4 kissing-loop reporter: 0.0521 µM
